Patent US20160185837A1, “GIP AND GLP-1 RECEPTOR DUAL-AGONISTS FOR THE TREATMENT OF DIABETES” (Medimmune Limited, priority 2013, published 2016)
Ends that are not written are not given here.

T1: rat GIP receptor (rat) (UniProt P43219)
T1 sequence (looked up): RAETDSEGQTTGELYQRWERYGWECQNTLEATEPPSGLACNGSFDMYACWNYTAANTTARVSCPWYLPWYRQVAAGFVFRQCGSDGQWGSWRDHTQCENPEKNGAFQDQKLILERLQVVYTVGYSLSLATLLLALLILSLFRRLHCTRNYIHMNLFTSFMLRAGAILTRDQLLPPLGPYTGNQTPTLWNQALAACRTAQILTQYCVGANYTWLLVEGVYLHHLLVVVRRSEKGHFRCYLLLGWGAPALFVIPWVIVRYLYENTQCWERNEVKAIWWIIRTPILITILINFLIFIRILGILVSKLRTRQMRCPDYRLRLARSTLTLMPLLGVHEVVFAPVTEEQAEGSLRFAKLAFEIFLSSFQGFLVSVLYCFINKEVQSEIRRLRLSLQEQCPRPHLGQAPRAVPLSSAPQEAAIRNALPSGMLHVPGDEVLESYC

T2: human GIP receptor (human) (UniProt P48546)
T2 sequence (looked up): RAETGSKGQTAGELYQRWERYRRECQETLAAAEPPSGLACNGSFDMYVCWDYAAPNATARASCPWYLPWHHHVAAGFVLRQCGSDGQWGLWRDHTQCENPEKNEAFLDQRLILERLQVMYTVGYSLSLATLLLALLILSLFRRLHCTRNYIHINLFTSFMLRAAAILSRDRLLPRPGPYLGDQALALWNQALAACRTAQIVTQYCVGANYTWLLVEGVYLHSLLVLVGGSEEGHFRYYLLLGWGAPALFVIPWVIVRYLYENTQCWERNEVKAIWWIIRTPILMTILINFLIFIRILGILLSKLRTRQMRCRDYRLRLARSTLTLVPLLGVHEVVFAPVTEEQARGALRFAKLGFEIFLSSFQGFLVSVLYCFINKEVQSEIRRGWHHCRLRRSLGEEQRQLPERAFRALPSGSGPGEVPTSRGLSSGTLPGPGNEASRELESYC

T3: mouse GIP receptor (mouse) (UniProt Q0P543)
T3 sequence (looked up): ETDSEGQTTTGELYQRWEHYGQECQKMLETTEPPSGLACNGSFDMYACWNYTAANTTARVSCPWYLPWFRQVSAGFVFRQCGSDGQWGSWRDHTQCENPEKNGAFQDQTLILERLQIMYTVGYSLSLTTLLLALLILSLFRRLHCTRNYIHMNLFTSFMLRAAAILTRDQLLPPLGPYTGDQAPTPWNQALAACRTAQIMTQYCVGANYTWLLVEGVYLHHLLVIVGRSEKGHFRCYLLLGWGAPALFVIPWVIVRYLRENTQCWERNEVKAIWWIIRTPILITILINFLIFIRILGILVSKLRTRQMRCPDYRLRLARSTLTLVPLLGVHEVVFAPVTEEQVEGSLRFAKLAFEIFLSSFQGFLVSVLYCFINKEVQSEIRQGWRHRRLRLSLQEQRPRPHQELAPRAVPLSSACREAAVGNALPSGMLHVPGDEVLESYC

B1: IP315 (Fc fusion)
chain: YSEGTFISDYSSYLERQAIDEFIAWLLKGGAAAGGSGSTASSGSGSATGGGGAATHTCPPC
B2: IP329 (Fc fusion)
chain: YSEGTFTSDYSKLLERQAIDEFIAELLKGGGGGGGSGGGGSGGGGSGGGGSGGGGSGGGGSA

Experiments:
Test in all cases: cell-based or functional assay
[1] = target: cynomolgus monkey glucagon receptor (cynomolgus monkey)
[2] = target: cynomolgus monkey GLP-1 receptor (cynomolgus monkey) (UniProt F8V479)
[3] = target: human GLP-1 receptor (human) (UniProt P43220)
[4] = target: T1, rat GIP receptor (rat)
[5] = target: T2, human GIP receptor (human)
[6] = target: mouse GLP-1 receptor (mouse) (UniProt O35659)
[7] = target: rat GLP-1 receptor (rat) (UniProt P32301)
[8] = target: T3, mouse GIP receptor (mouse)
[9] = target: human glucagon receptor (human) (UniProt P47871)
Chain of human glucagon receptor (human) (P47871 26-477): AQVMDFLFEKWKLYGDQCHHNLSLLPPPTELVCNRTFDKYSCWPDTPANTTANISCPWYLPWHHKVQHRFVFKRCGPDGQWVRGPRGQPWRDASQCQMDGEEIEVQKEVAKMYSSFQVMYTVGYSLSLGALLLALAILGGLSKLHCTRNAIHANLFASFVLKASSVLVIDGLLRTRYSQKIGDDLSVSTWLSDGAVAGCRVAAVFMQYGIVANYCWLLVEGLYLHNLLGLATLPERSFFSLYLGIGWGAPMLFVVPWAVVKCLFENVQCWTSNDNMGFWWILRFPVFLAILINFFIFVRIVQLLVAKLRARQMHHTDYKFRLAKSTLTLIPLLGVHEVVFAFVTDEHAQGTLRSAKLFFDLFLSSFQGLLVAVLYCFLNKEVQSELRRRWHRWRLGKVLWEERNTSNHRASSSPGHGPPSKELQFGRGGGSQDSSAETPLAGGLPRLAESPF

Chain of rat GLP-1 receptor (rat) (P32301 22-463): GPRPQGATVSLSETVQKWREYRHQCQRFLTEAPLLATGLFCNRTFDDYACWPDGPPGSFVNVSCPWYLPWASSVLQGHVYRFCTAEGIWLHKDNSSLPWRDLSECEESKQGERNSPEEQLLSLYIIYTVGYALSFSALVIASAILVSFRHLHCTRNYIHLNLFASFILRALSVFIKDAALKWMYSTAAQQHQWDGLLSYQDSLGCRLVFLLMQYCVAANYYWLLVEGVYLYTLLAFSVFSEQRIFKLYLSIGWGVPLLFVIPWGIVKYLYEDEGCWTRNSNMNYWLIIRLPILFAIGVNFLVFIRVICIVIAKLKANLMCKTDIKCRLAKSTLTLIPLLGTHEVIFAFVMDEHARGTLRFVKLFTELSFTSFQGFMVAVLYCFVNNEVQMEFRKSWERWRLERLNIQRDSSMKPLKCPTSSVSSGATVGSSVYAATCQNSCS
Chain of mouse GLP-1 receptor (mouse) (O35659 22-463): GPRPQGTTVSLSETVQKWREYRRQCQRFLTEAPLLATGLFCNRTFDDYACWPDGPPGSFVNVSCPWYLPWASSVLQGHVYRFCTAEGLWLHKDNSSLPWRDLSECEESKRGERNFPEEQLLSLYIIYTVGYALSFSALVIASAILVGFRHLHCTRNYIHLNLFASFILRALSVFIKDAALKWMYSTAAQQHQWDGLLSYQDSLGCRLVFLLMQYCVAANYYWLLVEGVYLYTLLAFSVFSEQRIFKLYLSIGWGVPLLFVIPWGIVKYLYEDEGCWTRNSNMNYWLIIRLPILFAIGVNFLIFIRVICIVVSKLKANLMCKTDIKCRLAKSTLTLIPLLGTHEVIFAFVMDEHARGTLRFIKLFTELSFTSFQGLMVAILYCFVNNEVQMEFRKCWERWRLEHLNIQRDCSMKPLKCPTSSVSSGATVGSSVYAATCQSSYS
Chain of human GLP-1 receptor (human) (P43220 24-463): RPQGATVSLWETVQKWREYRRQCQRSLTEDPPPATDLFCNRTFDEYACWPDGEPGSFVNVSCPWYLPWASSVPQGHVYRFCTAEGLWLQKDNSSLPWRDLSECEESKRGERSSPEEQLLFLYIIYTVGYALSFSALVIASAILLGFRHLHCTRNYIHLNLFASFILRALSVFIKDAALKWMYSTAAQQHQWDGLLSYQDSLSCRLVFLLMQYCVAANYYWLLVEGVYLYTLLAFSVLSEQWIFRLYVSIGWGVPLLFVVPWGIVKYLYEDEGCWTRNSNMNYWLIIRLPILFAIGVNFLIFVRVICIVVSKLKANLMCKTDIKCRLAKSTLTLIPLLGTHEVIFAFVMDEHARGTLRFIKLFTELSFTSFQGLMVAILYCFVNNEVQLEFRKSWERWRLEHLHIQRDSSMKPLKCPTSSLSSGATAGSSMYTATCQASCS
Chain of cynomolgus monkey GLP-1 receptor (cynomolgus monkey) (F8V479 entry or part of it): as the sequence (P43220 24-463) above, with S112N, F120S, S202G, L205V, L237F, W241R, I249V counted along it

Binder | cAMP EC50, 4.2% cyno serum albumin [1] [nM] | cAMP EC50, 4.2% cyno serum albumin [2] [nM] | cAMP EC50 [3] [nM] | cAMP EC50 [4] [nM] | cAMP EC50 [5] [nM] | cAMP EC50 [6] [nM] | cAMP EC50 [7] [nM] | cAMP EC50 [8] [nM] | cAMP EC50 [9] [nM]
HGEGTFTSDVSSYLEEQAAKEFIAWLVKGR (Fc fusion, not shown: a dimerising Fc or GST, also: fused to linker, hinge and IgG4 Fc (not given here)) [GLP-1 analogue-Fc (gamma4) fusion control] | > 1000 | 0.011 |  |  |  |  |  |  | 
B1 |  |  | > 5460 | 0.096 | 0.024 | > 5460 | 13 | 0.36 | 280
B2 |  |  | 1.4 | 0.06 | 0.011 | 9 | 0.18 | 2.6 | > 1430
